This note sets out measurements from article PMC9287160, “Structural insights into the function-modulating effects of nanobody binding to the integrin receptor αMβ2” (The Journal of Biological Chemistry, 2022).

The target in the test is T1, recombinant human αMβ2 αI domain (human).
T1 construct: αI domain (von Willebrand factor type A domain) of integrin αM (CD11b), human; numbers count on: the mature protein; PDB 4M76 (cited) holds an αI–C3d complex of the same laboratory; also called hαI; human αI domain
T1 chain: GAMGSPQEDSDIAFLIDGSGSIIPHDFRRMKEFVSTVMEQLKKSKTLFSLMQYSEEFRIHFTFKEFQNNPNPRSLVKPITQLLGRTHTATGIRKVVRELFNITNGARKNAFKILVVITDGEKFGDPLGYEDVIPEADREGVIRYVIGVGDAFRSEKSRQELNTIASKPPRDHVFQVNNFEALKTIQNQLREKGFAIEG
Description: BLI; His-tagged hCD11bNb1 on anti-penta-HIS sensors; αMβ2 HP 6.25-50 nM or αI domain 0.8-25 nM in solution; 30 °C; 20 mM Hepes pH 7.5, 150 mM NaCl, 5 mM MgCl2, 1 mM CaCl2; 1:1 model; triplicates; apparent. The following applies: both partners purified.

B1: nanobody hCD11bNb1 (His-tagged) (VHH)
VHH: QVQLVETGGGLVQAGGSLRLSCAASGNINSFNAMGWFRQAPGKQRELVAAITFGGRTNYADSVKGRFTISRDNTKGSVYLQMNSLKPEDTAVYYCAASENNLLTGVWHYWGRGTQVTVSS
notes: nanobody selected by phage display from a llama immunised with the αMβ2 HP; they are in PDB 7NP9 (nanobody alone) and PDB 7P2D (complex); Captured through its His tag on anti-penta-HIS BLI sensors. pET-22b(+) usually adds a C-terminal His6 (surmise); also called parental hCD11bNb1; WT hCD11bNb1
As for B1, the Kd is 1 to 6 nM.
